In experiment [1] the target is T1, SARS-CoV-2-S1 (RBD)-His protein (Trenzyme) (SARS-CoV-2, UniProt P0DTC2 319-541). Description: competition ELISA, RBD binding to coated ACE2. (In general: An ELISA detects its analyte on a solid surface through an enzyme-linked reagent.)
Experiment [2] has as its target T1, SARS-CoV-2-S1 (RBD)-His protein ….
Experiment [3] shares this target. Description: direct ELISA on coated RBD-His.
For experiment [4], the target named is 2019-nCov Spike protein (S1 mFC tag) (SARS-CoV-2, UniProt P0DTC2 16-685).
In experiment [5] the target is T1, SARS-CoV-2-S1 (RBD)-His protein …. Description: direct ELISA on coated RBD-His (FIG. 1D).

Values joined by “and” are separate entries in the source; they are usually repeats but may differ in a detail not shown here. Equal values may be shown once.

B1: NI-607.427_C5 IgG4 S228P (antibody, V domains shown)
VH: QVQLVQSGAEVKKPGASVKVSCKASGYTFTSYGISWVRQAPGQGLEWMGWISAYNGNTNYAQKLQGRVTMTTDTSTSTAYMELRSLRSDDTAVYYCARDNRAGWDQLDYWGQGTLVTVSS
VL: not shown
Regarding B1, the IC50 (as a rule, the concentration that gives 50% inhibition) in experiment [1] was ~2.79 µg/mL and ~18.6 nM.

B2: NI-607.531_C8 IgG4 S228P (antibody, V domains shown)
VH: EVQLVESGGGVVQPGRSLRLSCTASGFTFSFYSVHWVRQAPGKGLEWVAVISYDGSTKYYADSVKGRFTISRDNSKNTLYLQMDSLRTEDTAVYYCASPPISPIPAAGTPLAYWGQGTLVTVSS
VL: not shown
B2: the “IC50 (read off the curve)” value in experiment [2] is roughly 0.03 µg/mL. Further, the EC50 (commonly the midpoint of the concentration-response curve) in experiment [3] was roughly 8.5 pM. The IC50 in experiment [1] was roughly 0.191 µg/mL.

B3: NI-607.532_F9 IgG4 S228P (antibody, V domains shown)
VH: EVQLVESGGNLIQPGGSLRLSCAASGFTVSSNYMSWVRQAPGKGLEWVSVIYSGGSTYYADSVKGRFTISRDNSRNTLYLQMNSLRAEDTAVYFCARDRVVRGVRGNGMDVWGQGTTVTVSS
VL: AIRMTQSPSSLSASVGDRVTITCQASQDINIYLNWYQQRPGKAPKLLIYDASNLETGVPSRFSGSGSGTDFTFTISSLQPEDIATYYCHQYDNLPRTFGQGTKVDIK
B3: the IC50 in experiment [1] is ~1.09 µg/mL and ~7.3 nM.

B4: NI-607.532_C11 IgG4 S228P (antibody, V domains shown)
VH: QVQLVESGGGLIQPGGSLRLSCAASGFTVSSNYMSWVRQAPGKGLEWVSVIYSGGSTYYADSVKGRFTISRDNSKNTLFLQMNSLRAEDTAVYYCARDLQYYGMDVWGQGTTVTVSS
VL: DIQMTQSPSFLSASVGDRVTITCRASQGISSYLAWYQQKPGKAPKLLIYAASTLQSGVPSRFSGSGSGTEFTLTISSLQPEDFATYYCQQLDSYPPRDTFGQGTKVEIK
For B4, the IC50 in experiment [1] was ~2.32 µg/mL and ~15.4 nM.

B5: NI-607.649_B11 (antibody, V domains shown)
VH: QVQLVQSGAEVKKPGSSVKVSCKASGGTFSNYAISWVRQAPGQGLEWMGGIIPIFGTANYAQKFQGRVTITADESTSTAYMELSSLRSEDTAVYYCAGDRWYYDSSGYPTPDEYFQHWGQGTQVTVSS
VL: QSVLTQPPSVSGAPGQRVTISCTGSSSNIGAGYDVHWYQQLPGTAPKLLIYGNSNRPSGVPDRFSGSKSGTSASLAITGLQAEDEADYYCQSYDSSLSGVVFGGGTKLTVL
Turning to B5, the EC50 (read off the curve) (in general, the midpoint of the concentration-response curve) in experiment [4] was roughly 500 pM.

B6: NI-607.649_B11 IgG4 S228P (antibody, V domains shown)
VH: B5 VH
VL: B5 VL
For B6, in experiment [2], the “IC50 (read off the curve)” value was roughly 0.05 µg/mL. The EC50 in experiment [5] was roughly 8.5 pM. The molecule further registered an IC50 in experiment [1] of roughly 0.047 µg/mL.

Source of the values: patent US20230242624A1 (NEURIMMUNE, published 2023).
